Laboratory results taken from paper PMC10907249.

Molecular target: HLA-A*02:01 refolded with the photocleavable peptide photoKV9, UV-exposed (A*02/photoKV9)
Assay: fluorescence polarisation

**Q.** For “US11 peptide S28V_WT (amino acids 17 to 44) (from UniProt P09727 17-44)”, which IC50 is on record?
**A.** 3.83 µM
